# Measurements reported in patent publication US20150344570A1 (published 2015).
# T1: FcγRIIb extracellular domain with C-terminal His tag (human, UniProt P31994 43-217)
# T1 construct: extracellular domain; Soluble receptor expressed in FreeStyle293 cells, used as analyte in Biacore; also called FcgRIIb; 2b
# T1 sequence (looked up): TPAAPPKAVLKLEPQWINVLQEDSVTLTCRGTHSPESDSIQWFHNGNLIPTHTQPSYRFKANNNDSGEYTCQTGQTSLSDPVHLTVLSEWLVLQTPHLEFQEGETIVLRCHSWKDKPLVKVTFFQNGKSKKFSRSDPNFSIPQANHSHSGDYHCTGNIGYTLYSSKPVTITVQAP
# B1: GpH7-A5/GpH7-B3 variant S298_02A/GpL16-k0 (antibody, human IgG1, kappa)
# heavy 1: not shown
# heavy 2: not shown
# light: DIVMTQSPLSLPVTPGEPASISCQASESLVHSNRNTYLHWYLQKPGQSPQLLIYKVSNRFSGVPDRFSGSGSGTDFTLKISRVEAEDVGVYYCSQNTHVPPTFGQGTKVEIERTVAAPSVFIFPPSDEQLKSGTASVVCLLNNFYPREAKVQWKVDNALQSGNSQESVTEQDSKDSTYSLSSTLTLSKADYEKHKVYACEVTHQGLSSPVTKSFNRGEC
# notes: Heterodimerized anti-glypican-3 IgG1; mutation in the GpH7-B3 chain only; also called He Ab
# B2: GpH7-A5/GpH7-B3 variant K334_08L/GpL16-k0 (antibody, human IgG1, kappa)
# heavy 1: not shown
# heavy 2: not shown
# light: B1 light
# notes: as for B1
# B3: GpH7-A5/GpH7-B3 variant K334_06M/GpL16-k0 (antibody, human IgG1, kappa)
# heavy 1: not shown
# heavy 2: not shown
# light: B1 light
# notes: as for B1
# B4: GpH7-A5/GpH7-B3 variant A330_06M/GpL16-k0 (antibody, human IgG1, kappa)
# heavy 1: not shown
# heavy 2: not shown
# light: B1 light
# notes: as for B1
# B5: GpH7-A5/GpH7-B3 variant E333_13S/GpL16-k0 (antibody, human IgG1, kappa)
# heavy 1: not shown
# heavy 2: not shown
# light: B1 light
# notes: as for B1
# B6: GpH7-A5/GpH7-B3 variant K334_02A/GpL16-k0 (antibody, human IgG1, kappa)
# heavy 1: not shown
# heavy 2: not shown
# light: B1 light
# notes: as for B1
# B7: GpH7-A5/GpH7-B3 variant A327_11K/GpL16-k0 (antibody, human IgG1, kappa)
# heavy 1: not shown
# heavy 2: not shown
# light: B1 light
# notes: as for B1
# B8: GpH7-A5/GpH7-B3 variant I332_09D/GpL16-k0 (antibody, human IgG1, kappa)
# heavy 1: not shown
# heavy 2: not shown
# light: B1 light
# notes: as for B1
# B9: GpH7-A5/GpH7-B3 variant A330_07I/GpL16-k0 (antibody, human IgG1, kappa)
# heavy 1: not shown
# heavy 2: not shown
# light: B1 light
# notes: as for B1
# B10: GpH7-A5/GpH7-B3 variant I332_01G/GpL16-k0 (antibody, human IgG1, kappa)
# heavy 1: not shown
# heavy 2: not shown
# light: B1 light
# notes: as for B1
# B11: GpH7-A5/GpH7-B3 variant K334_07I/GpL16-k0 (antibody, human IgG1, kappa)
# heavy 1: not shown
# heavy 2: not shown
# light: B1 light
# notes: as for B1
# B12: GpH7-A5/GpH7-B3 variant I332_10E/GpL16-k0 (antibody, human IgG1, kappa)
# heavy 1: not shown
# heavy 2: not shown
# light: B1 light
# notes: as for B1
# B13: GpH7-A5/GpH7-B3 variant E333_16H/GpL16-k0 (antibody, human IgG1, kappa)
# heavy 1: not shown
# heavy 2: not shown
# light: B1 light
# notes: as for B1
# B14: GpH7-A5/GpH7-B3 variant K334_04F/GpL16-k0 (antibody, human IgG1, kappa)
# heavy 1: not shown
# heavy 2: not shown
# light: B1 light
# notes: as for B1
# B15: GpH7-A5/GpH7-B3 variant K334_09D/GpL16-k0 (antibody, human IgG1, kappa)
# heavy 1: not shown
# heavy 2: not shown
# light: B1 light
# notes: as for B1
# B16: GpH7-A5/GpH7-B3 variant A330_15Y/GpL16-k0 (antibody, human IgG1, kappa)
# heavy 1: not shown
# heavy 2: not shown
# light: B1 light
# notes: as for B1
# B17: GpH7-A5/GpH7-B3 variant I332_12R/GpL16-k0 (antibody, human IgG1, kappa)
# heavy 1: not shown
# heavy 2: not shown
# light: B1 light
# notes: as for B1
# B18: GpH7-A5/GpH7-B3 variant A330_03V/GpL16-k0 (antibody, human IgG1, kappa)
# heavy 1: not shown
# heavy 2: not shown
# light: B1 light
# notes: as for B1
# B19: GpH7-A5/GpH7-B3 variant P329_02A/GpL16-k0 (antibody, human IgG1, kappa)
# heavy 1: not shown
# heavy 2: not shown
# light: B1 light
# notes: as for B1
# B20: GpH7-A5/GpH7-B3 variant P329_11K/GpL16-k0 (antibody, human IgG1, kappa)
# heavy 1: not shown
# heavy 2: not shown
# light: B1 light
# notes: as for B1
# B21: GpH7-A5/GpH7-B3 variant K334_01G/GpL16-k0 (antibody, human IgG1, kappa)
# heavy 1: not shown
# heavy 2: not shown
# light: B1 light
# notes: as for B1
# B22: GpH7-A5/GpH7-B3 variant E333_02A/GpL16-k0 (antibody, human IgG1, kappa)
# heavy 1: not shown
# heavy 2: not shown
# light: B1 light
# notes: as for B1
# B23: GpH7-A5/GpH7-B3 variant P329_12R/GpL16-k0 (antibody, human IgG1, kappa)
# heavy 1: not shown
# heavy 2: not shown
# light: B1 light
# notes: as for B1
# B24: GpH7-A5/GpH7-B3 variant E333_01G/GpL16-k0 (antibody, human IgG1, kappa)
# heavy 1: not shown
# heavy 2: not shown
# light: B1 light
# notes: as for B1
# B25: GpH7-A5/GpH7-B3 variant A330_10E/GpL16-k0 (antibody, human IgG1, kappa)
# heavy 1: not shown
# heavy 2: not shown
# light: B1 light
# notes: as for B1
# B26: GpH7-A5/GpH7-B3 variant A330_04F/GpL16-k0 (antibody, human IgG1, kappa)
# heavy 1: not shown
# heavy 2: not shown
# light: B1 light
# notes: as for B1
# B27: GpH7-A5/GpH7-B3 variant K334_05P/GpL16-k0 (antibody, human IgG1, kappa)
# heavy 1: not shown
# heavy 2: not shown
# light: B1 light
# notes: as for B1
# B28: GpH7-A5/GpH7-B3 variant A330_08L/GpL16-k0 (antibody, human IgG1, kappa)
# heavy 1: not shown
# heavy 2: not shown
# light: B1 light
# notes: as for B1
# B29: GpH7-A5/GpH7-B3 variant A330_20W/GpL16-k0 (antibody, human IgG1, kappa)
# heavy 1: not shown
# heavy 2: not shown
# light: B1 light
# notes: as for B1
# Molecular target: T2, FcγRIIIa extracellular domain with C-terminal His tag (human, UniProt P08637 17-208)
# T2 construct: extracellular domain; also called FcgRIIIa; 3a
# T2 sequence (P08637 17-208): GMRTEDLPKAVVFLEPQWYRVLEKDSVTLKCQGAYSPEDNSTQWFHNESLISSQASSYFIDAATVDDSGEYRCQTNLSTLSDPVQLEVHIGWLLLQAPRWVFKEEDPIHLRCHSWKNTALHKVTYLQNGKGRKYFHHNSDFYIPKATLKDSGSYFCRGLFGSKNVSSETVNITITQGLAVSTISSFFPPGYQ
# Assay: SPR (Biacore), antibody captured on antigen peptide chip, FcγR as analyte; GpH7-A5/GpH7-B3/GpL16-k0 = 100
# Procedure: (§1) The heterodimerized antibodies He Abs in which one of the H chains was introduced with an alteration were assayed for their binding activities to each activating FcγR and inhibitory FcγR according to the method described in Example 4. […] The activating FcγRs in FIGS. 26, 27, 28, and 29 are FcγRIa, FcγRIIa (R), FcγRIIa (H), and FcγRIIIa, respectively.
# (§2) Analysis of interaction between objective antibody and the FcγR was carried out using Biacore T100 (GE Healthcare). HBS-EP+ (GE Healthcare) was used as the running buffer, and the measurement temperature was set to 25° C. Chips produced by immobilizing the antigen peptide by the amine coupling method to a Series S Sencor Chip CM5 (GE Healthcare), or alternatively, chips produced by allowing preliminarily biotinylated antigen peptides to interact with and immobilize onto a Series S Sensor Chip SA (certified) (GE Healthcare) were used. Antibodies of interest were captured onto an antigen peptide-immobilized chip, and allowed to interact to each FcγR diluted with running buffer. To regenerate and repeatedly use the chip, the antibodies captured on the chip were washed off by reacting 10 mM glycine-HCl, pH 1.5.
row,Binder,He/Con_3a (relative binding activity)
1,B1,160 % of control
2,B2,143 % of control
3,B3,144 % of control
4,B4,142 % of control
5,B5,103 % of control
6,B6,147 % of control
7,B7,31.7 % of control
8,B8,207 % of control
9,B9,103 % of control
10,B10,111 % of control
11,B11,151 % of control
12,B12,233 % of control
13,B13,103 % of control
14,B14,148 % of control
15,B15,160 % of control
16,B16,125 % of control
17,B17,75.9 % of control
18,B18,101 % of control
19,B19,56.4 % of control
20,B20,29.6 % of control
21,B21,121 % of control
22,B22,105 % of control
23,B23,26.7 % of control
24,B24,98.2 % of control
25,B25,84.6 % of control
26,B26,147 % of control
27,B27,134 % of control
28,B28,124 % of control
29,B29,104 % of control

# Molecular target: T1, FcγRIIb extracellular domain with …
# Assay: as above
# Procedure: as §1, §2
row,Binder,He/Con_2b (relative binding activity)
1,B1,73.4 % of control
2,B2,106 % of control
3,B3,109 % of control
4,B4,80.5 % of control
5,B5,81.8 % of control
6,B6,108 % of control
7,B7,12.5 % of control
8,B8,147 % of control
9,B9,67.1 % of control
10,B10,87.1 % of control
11,B11,119 % of control
12,B12,142 % of control
13,B13,83.3 % of control
14,B14,111 % of control
15,B15,94.8 % of control
16,B16,95 % of control
17,B17,48.9 % of control
18,B18,52.4 % of control
19,B19,40.5 % of control
20,B20,16.9 % of control
21,B21,92.5 % of control
22,B22,83.8 % of control
23,B23,17.6 % of control
24,B24,81.4 % of control
25,B25,70.1 % of control
26,B26,92.8 % of control
27,B27,105 % of control
28,B28,70.5 % of control
29,B29,76.1 % of control

# Molecular target: T2, FcγRIIIa extracellular domain with …
# Assay: SPR (Biacore); He/Con_3a divided by He/Con_2b (FcγRIIIa against FcγRIIb)
# Procedure: as §1, §2
row,Binder,He_3a/2b (IIIa/IIb) [ratio]
1,B1,2.18
2,B2,1.35
3,B3,1.33
4,B4,1.76
5,B5,1.26
6,B6,1.37
7,B7,2.53
8,B8,1.41
9,B9,1.53
10,B10,1.27
11,B11,1.27
12,B12,1.63
13,B13,1.24
14,B14,1.33
15,B15,1.69
16,B16,1.32
17,B17,1.55
18,B18,1.93
19,B19,1.39
20,B20,1.76
21,B21,1.31
22,B22,1.26
23,B23,1.52
24,B24,1.21
25,B25,1.21
26,B26,1.59
27,B27,1.27
28,B28,1.77
29,B29,1.37
